Square brackets hold non-standard residues; d marks the D form. Ends that are not written are not given here. pT = C[C@@H](OP(=O)(O)O)[C@H](N)C(=O)O; pS = N[C@@H](COP(=O)(O)O)C(=O)O
Experiments:
β-arrestin2 R166A = β-arrestin2 R166A (UniProt P29067 1-410, R166A); assay: ITC
β-arrestin2 R394A = β-arrestin2 R394A (UniProt P29067 1-410, R394A); assay: ITC
Sequence of β-arrestin2 R394A (P29067 whole entry R394A): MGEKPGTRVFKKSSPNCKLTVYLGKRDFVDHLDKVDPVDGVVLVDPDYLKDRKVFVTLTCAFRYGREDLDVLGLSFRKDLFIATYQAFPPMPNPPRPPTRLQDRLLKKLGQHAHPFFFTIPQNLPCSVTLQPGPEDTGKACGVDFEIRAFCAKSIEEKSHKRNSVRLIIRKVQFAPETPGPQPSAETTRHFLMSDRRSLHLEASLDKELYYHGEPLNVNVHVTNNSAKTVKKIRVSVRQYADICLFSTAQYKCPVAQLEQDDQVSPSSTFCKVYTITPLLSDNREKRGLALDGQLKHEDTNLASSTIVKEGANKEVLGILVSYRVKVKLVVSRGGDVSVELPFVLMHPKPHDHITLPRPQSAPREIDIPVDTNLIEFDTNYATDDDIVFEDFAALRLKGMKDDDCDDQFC

Sequence of β-arrestin2 R166A (P29067 whole entry R166A): as the sequence (P29067 whole entry R394A) above, with R166A, A394R counted along it

B1: C7pp2, phosphopeptide derived from the carboxyl terminus of CXCR7 (residues 346-359) (peptide)
peptide: ASRV[pS]E[pT]EY[pS]ALEQ
- Kd (β-arrestin2 R166A): 16.4 µM
- Kd (β-arrestin2 R394A): 1.1 µM
